Reference: patent US20230265151A1, “GIP/GLP1 CO-AGONIST COMPOUNDS” (priority 2020, published 2023)
Numbering of substitutions follows the chain as printed.

T1: human GIP receptor (human, UniProt P48546 22-466)
T1 construct: whole, on cells; also called hGIPR; human glucose-dependent insulinotropic polypeptide receptor
T1 sequence (looked up): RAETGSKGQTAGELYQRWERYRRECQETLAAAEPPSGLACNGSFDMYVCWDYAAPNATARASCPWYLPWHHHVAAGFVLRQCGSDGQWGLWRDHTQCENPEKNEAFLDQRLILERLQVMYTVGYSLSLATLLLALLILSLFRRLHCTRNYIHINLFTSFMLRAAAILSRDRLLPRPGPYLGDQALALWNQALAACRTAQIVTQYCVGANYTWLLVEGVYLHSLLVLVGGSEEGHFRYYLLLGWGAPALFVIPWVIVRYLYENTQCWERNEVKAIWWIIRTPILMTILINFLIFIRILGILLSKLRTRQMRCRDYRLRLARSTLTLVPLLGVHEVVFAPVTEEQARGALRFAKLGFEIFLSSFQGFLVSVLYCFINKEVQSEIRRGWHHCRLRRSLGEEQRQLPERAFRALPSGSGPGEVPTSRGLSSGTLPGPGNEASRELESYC

B1: Y-Aib-EGT-αMeF(2F)-TSD-4Pal-SI-αMeL-LD-Orn-IAQ-Aib-K((2-[2-(2-Amino-ethoxy)-ethoxy]-acetyl)2-(γ-Glu)-CO-(CH2)12-CO2H)FI-(D-Glu)-αMeY-LIEGGPSSGAPPPSK((2-[2-(2-Am … (peptide)
peptide: YXEGTXTSDXSIXLDXIAQXKFIXXLIEGGPSSGAPPPSK
modifications: Aib2, αMeF(2F)6, 4Pal10, αMeL13, Orn16, Aib20, K21(Z1), D-Glu24, αMeY25, K40(Z1), C-term NH2; Z1=AEEA2-(γ-Glu)-CO-(CH2)12-CO2H
B2: Y-Aib-EGT-αMeF(2F)-TSD-4Pal-SI-αMeL-LD-Orn-K((2-[2-(2-Amino-ethoxy)-ethoxy]-acetyl)2-(γ-Glu)-CO-(CH2)10-CH3)AQ-Aib-EFI-(D-Glu)-αMeY-LIEGGP S SGAPPP … (peptide)
peptide: B1 peptide with I17K, K21E
modifications: Aib2, αMeF(2F)6, 4Pal10, αMeL13, Orn16, K17(Z1), Aib20, D-Glu24, αMeY25, K40(Z1), C-term NH2; Z1=AEEA2-(γ-Glu)-CO-(CH2)10-CH3
B3: Y-Aib-EGT-αMeF(2F)-TSD-hTyr-SI-αMeL-LD-Orn-K((2-[2-(2-Amino-ethoxy)-ethoxy]-acetyl)2-(γ-Glu)-CO-(CH2)12-CO2H)AQ-Aib-EFI-(D-Glu)-αMeY-LIEGGK((2-[2-(2-Amino-ethox … (peptide)
peptide: YXEGTXTSDXSIXLDXKAQXEFIXXLIEGGKSSGAPPPS
modifications: Aib2, αMeF(2F)6, hTyr10, αMeL13, Orn16, K17(Z1), Aib20, D-Glu24, αMeY25, K31(Z1), C-term NH2; Z1=AEEA2-(γ-Glu)-CO-(CH2)12-CO2H
B4: Y-Aib-EGT-αMeF(2F)-TSD-4Pal-SI-αMeL-LD-Orn-K((2-[2-(2-Amino-ethoxy)-ethoxy]-acetyl)2-(γ-Glu)-CO-(CH2)12-CO2H)AQ-Aib-E-1Nal-I-(D-Glu)-αMeY-LIEGGK((2-[2-(2-Amino- … (peptide)
peptide: B3 peptide with F22X
modifications: Aib2, αMeF(2F)6, 4Pal10, αMeL13, Orn16, K17(Z1), Aib20, 1Nal22, D-Glu24, αMeY25, K31(Z1), C-term NH2; Z1=AEEA2-(γ-Glu)-CO-(CH2)12-CO2H
B5: Y-Aib-EGT-αMeF(2F)-TSD-4Pal-SI-αMeL-LD-Orn-K((2-[2-(2-Amino-ethoxy)-ethoxy]-acetyl)2-(γ-Glu)-(4-(4-iodophenyl)butanoyl))AQ-Aib-EFI-(D-Glu)-αMeY-LIEGGK((2-[2-(2- … (peptide)
peptide: B3 peptide
modifications: Aib2, αMeF(2F)6, 4Pal10, αMeL13, Orn16, K17(Z1), Aib20, D-Glu24, αMeY25, K31(Z1), C-term NH2; Z1=AEEA2-(γ-Glu)-(4-(4-iodophenyl)butanoyl)
B6: Y-Aib-EGT-αMeF(2F)-TSD-Nle-SI-αMeL-LD-Orn-K((2-[2-(2-Amino-ethoxy)-ethoxy]-acetyl)2-(γ-Glu)-CO-(CH2)12-CO2H)AQ-Aib-EFI-(D-Glu)-αMeY-LIEGGK((2-[2-(2-Amino-ethoxy … (peptide)
peptide: B3 peptide
modifications: Aib2, αMeF(2F)6, Nle10, αMeL13, Orn16, K17(Z1), Aib20, D-Glu24, αMeY25, K31(Z1), C-term NH2; Z1=AEEA2-(γ-Glu)-CO-(CH2)12-CO2H
B7: Y-Aib-EGT-αMeF(2F)-TSDK((2-[2-(2-Amino-ethoxy)-ethoxy]-acetyl)2-(γ-Glu)-CO-(CH2)10-CH3)SI-αMeL-LD-Orn-K((2-[2-(2-Amino-ethoxy)-ethoxy]-acetyl)2-(γ-Glu)-CO-(CH2) … (peptide)
peptide: B3 peptide with X10K, F22X, K31P
modifications: Aib2, αMeF(2F)6, K10(Z1), αMeL13, Orn16, K17(Z1), Aib20, αMeF22, D-Glu24, αMeY25, C-term NH2; Z1=AEEA2-(γ-Glu)-CO-(CH2)10-CH3
B8: Y-Aib-EGT-αMeF(2F)-TSD-4Pal-SI-αMeL-LD-Orn-K((2-[2-(2-Amino-ethoxy)-ethoxy]-acetyl)2-(γ-Glu)-CO-(CH2)10-CH3)AQ-Aib-Orn-FI-(D-Glu)-αMeY-LIK((2-[2-(2-Amino-ethoxy … (peptide)
peptide: B3 peptide with E21X, E28K, K31P
modifications: Aib2, αMeF(2F)6, 4Pal10, αMeL13, Orn16, K17(Z1), Aib20, Orn21, D-Glu24, αMeY25, K28(Z1), C-term NH2; Z1=AEEA2-(γ-Glu)-CO-(CH2)10-CH3
B9: Y-Aib-EGT-αMeF(2F)-TSD-4Pal-SI-αMeL-LD-Orn-K((2-[2-(2-Amino-ethoxy)-ethoxy]-acetyl)2-(γ-Glu)-CO-(CH2)12-CO2H)AQ-Aib-E-3,5FPhe-I-(D-Glu)-αMeY-LIEGGK((2-[2-(2-Ami … (peptide)
peptide: B3 peptide with F22X
modifications: Aib2, αMeF(2F)6, 4Pal10, αMeL13, Orn16, K17(Z1), Aib20, 3,5FPhe22, D-Glu24, αMeY25, K31(Z1), C-term NH2; Z1=AEEA2-(γ-Glu)-CO-(CH2)12-CO2H
B10: Y-Aib-EGT-αMeF(2F)-TSD-4Pal-SI-αMeL-LD-Orn-K((2-[2-(2-Amino-ethoxy)-ethoxy]-acetyl)2-(γ-Glu)-CO-(CH2)10-CH3)AQ-Aib-K((2-[2-(2-Amino-ethoxy)-ethoxy]-acetyl)2-(γ- … (peptide)
peptide: B3 peptide with E21K, E28X, K31P
modifications: Aib2, αMeF(2F)6, 4Pal10, αMeL13, Orn16, K17(Z1), Aib20, K21(Z1), D-Glu24, αMeY25, Orn28, C-term NH2; Z1=AEEA2-(γ-Glu)-CO-(CH2)10-CH3
B11: Y-Aib-EGT-αMeF(2F)-TSD-4Pal-SI-αMeL-LD-Orn-K((2-[2-(2-Amino-ethoxy)-ethoxy]-acetyl)2-(γ-Glu)-CO-(CH2)12-CO2H)AQ-Aib-EFIK((2-[2-(2-Amino-ethoxy)-ethoxy]-acetyl)2 … (peptide)
peptide: B3 peptide with X24K, K31P
modifications: Aib2, αMeF(2F)6, 4Pal10, αMeL13, Orn16, K17(Z1), Aib20, K24(Z1), αMeY25, C-term NH2; Z1=AEEA2-(γ-Glu)-CO-(CH2)12-CO2H
B12: Y-Aib-EGT-αMeF(2F)-TSD-4Pal-SI-αMeL-LD-Orn-IAQ-Aib-EFIK((2-[2-(2-Amino-ethoxy)-ethoxy]-acetyl)2-(γ-Glu)-CO-(CH2)12-CO2H)-αMeY-LIK((2-[2-(2-Amino-ethoxy)-ethoxy] … (peptide)
peptide: B3 peptide with K17I, X24K, E28K, K31P
modifications: Aib2, αMeF(2F)6, 4Pal10, αMeL13, Orn16, Aib20, K24(Z1), αMeY25, K28(Z1), C-term NH2; Z1=AEEA2-(γ-Glu)-CO-(CH2)12-CO2H
B13: Y-Aib-EGT-αMeF(2F)-TSD-4Pal-Aib-I-αMeL-LD-Orn-QAQ-Aib-EFIK((2-[2-(2-Amino-ethoxy)-ethoxy]-acetyl)2-(γ-Glu)-(10-(4-carboxyphenoxy)decanoyl))-αMeY-LIK((2-[2-(2-Am … (peptide)
peptide: YXEGTXTSDXXIXLDXQAQXEFIKXLIKGGPSSGAPPPS
modifications: Aib2, αMeF(2F)6, 4Pal10, Aib11, αMeL13, Orn16, Aib20, K24(Z1), αMeY25, K28(Z1), C-term NH2; Z1=AEEA2-(γ-Glu)-(10-(4-carboxyphenoxy)decanoyl)
B14: Y-Aib-EGT-αMeF(2F)-TSD-4Pal-Aib-I-αMeL-LD-Orn-IAQ-Aib-EFIK((2-[2-(2-Amino-ethoxy)-ethoxy]-acetyl)2-(γ-Glu)-(10-(4-carboxyphenoxy)decanoyl))-αMeY-LIK((2-[2-(2-Am … (peptide)
peptide: B13 peptide with Q17I
modifications: Aib2, αMeF(2F)6, 4Pal10, Aib11, αMeL13, Orn16, Aib20, K24(Z1), αMeY25, K28(Z1), C-term NH2; Z1=AEEA2-(γ-Glu)-(10-(4-carboxyphenoxy)decanoyl)
B15: Y-Aib-EGT-αMeF(2F)-TSD-4Pal-Aib-I-αMeL-LD-Orn-IAQ-Aib-EFIK((2-[2-(2-Amino-ethoxy)-ethoxy]-acetyl)2-(γ-Glu)-CO-(CH2)12-CO2H)-αMeY-LIK((2-[2-(2-Amino-ethoxy)-etho … (peptide)
peptide: B13 peptide with Q17I
modifications: Aib2, αMeF(2F)6, 4Pal10, Aib11, αMeL13, Orn16, Aib20, K24(Z1), αMeY25, K28(Z1), C-term NH2; Z1=AEEA2-(γ-Glu)-CO-(CH2)12-CO2H
B16: Y-Aib-EGT-αMeF(2F)-TSD-4Pal-αMeS-I-αMeL-LD-Orn-IAQ-Aib-EFIK((2-[2-(2-Amino-ethoxy)-ethoxy]-acetyl)2-(γ-Glu)-CO-(CH2)12-CO2H)-αMeY-LIK((2-[2-(2-Amino-ethoxy)-eth … (peptide)
peptide: B13 peptide with Q17I
modifications: Aib2, αMeF(2F)6, 4Pal10, αMeS11, αMeL13, Orn16, Aib20, K24(Z1), αMeY25, K28(Z1), C-term NH2; Z1=AEEA2-(γ-Glu)-CO-(CH2)12-CO2H

Assays:
human glucagon receptor = biological target: T2, human glucagon receptor (human, UniProt P47871 26-477); assay: SPA competition vs [125I]-Gcg, hGcgR membranes
T2 construct: whole, on cells; also called hGCGR; hGcgR
T2 sequence (P47871 26-477): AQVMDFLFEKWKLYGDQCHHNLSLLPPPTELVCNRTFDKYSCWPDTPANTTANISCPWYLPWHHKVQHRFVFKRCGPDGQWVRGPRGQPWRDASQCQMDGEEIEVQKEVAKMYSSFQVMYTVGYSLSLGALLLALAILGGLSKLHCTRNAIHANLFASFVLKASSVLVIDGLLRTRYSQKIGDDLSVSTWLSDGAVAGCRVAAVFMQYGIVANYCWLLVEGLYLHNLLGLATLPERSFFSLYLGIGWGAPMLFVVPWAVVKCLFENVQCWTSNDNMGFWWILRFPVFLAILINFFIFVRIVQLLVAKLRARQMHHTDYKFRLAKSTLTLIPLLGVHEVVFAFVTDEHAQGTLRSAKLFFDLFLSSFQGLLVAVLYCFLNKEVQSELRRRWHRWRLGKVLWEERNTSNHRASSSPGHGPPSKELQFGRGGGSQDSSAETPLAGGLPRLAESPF
Procedure: The binding buffer contains 25 mM 4-(2-hydroxyethyl)-1-piperazineethanesulfonic acid (HEPES), pH 7.4, 2.5 mM CaCl₂, 1 mM MgCh, 0.1% (w/v) bacitracin (Research Products), 0.003% (w/v) Polyoxyethylenesorbitan monolaurate (TWEEN®-20), and Roche Complete™ Protease Inhibitors without EDTA. […] Plates are sealed and mixed on a plate shaker (setting 6) for 1 minute and read with a PerkinElmer Trilux MicroBeta® scintillation counter after 12 hours of incubation/settling time at room temperature.
Data are analyzed using four-parameter (curve maximum, curve minimum, IC₅₀, Hill slope) nonlinear regression routines (Genedata Screener, version 12.0.4, Genedata AG, Basal, Switzerland). […] Values for Kᵢ are reported as the geometric mean, with error expressed as the standard error of the mean (SEM) and n is equal to the number of independent replicates (determined in assays performed on different days).

human GIP receptor = biological target: T1, human GIP receptor; assay: SPA competition vs [125I]-GIP, hGIPR membranes
human GLP-1 receptor = biological target: T3, human GLP-1 receptor (human, UniProt P43220 24-463); assay: SPA competition vs [125I]-GLP-1, hGLP-1R membranes
T3 construct: whole, on cells; also called hGLP-1R; human glucagon-like peptide-1 receptor
Method in brief: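 Competition binding in 25 mM HEPES pH 7.4, 2.5 mM CaCl₂, 1 mM MgCl₂, 0.1% bacitracin, 0.003% TWEEN-20, EDTA-free protease inhibitors. IC₅₀ from four-parameter nonlinear fit; Kᵢ given as geometric mean ± SEM, n = independent replicates on different days.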

| Binder | Ki (human glucagon receptor) | Ki (human GIP receptor) | Ki (human GLP-1 receptor) |
| --- | --- | --- | --- |
| B1 | 206 nM | 0.107 nM | 2.8 nM |
| B2 | 13.9 nM | 0.0291 nM | 0.194 nM |
| B3 | 2000 nM | 0.171 nM | 0.789 nM |
| B4 | 4150 nM | 0.263 nM | 1.55 nM |
| B5 | 711 nM | 0.0629 nM | 0.471 nM |
| B6 | 737 nM | 0.11 nM | 0.872 nM |
| B7 | 23.1 nM | 0.022 nM | 0.211 nM |
| B8 | 93.3 nM | 0.0215 nM | 0.101 nM |
| B9 | 4290 nM | 0.121 nM | 1.05 nM |
| B10 | 14.3 nM | 0.0131 nM | 0.119 nM |
| B11 | 707 nM | 0.054 nM | 1.4 nM |
| B12 | 151 nM | 0.12 nM | 1.67 nM |
| B13 | 134 nM | 0.0375 nM | 0.424 nM |
| B14 | 44.6 nM | 0.0432 nM | 0.557 nM |
| B15 | 135 nM | 0.114 nM | 0.939 nM |
| B16 | 328 nM | 0.0491 nM | 0.863 nM |
